# Measured values: the nanobody polyreactivity screen of Harvey et al. (2022)
# Test: yeast display, Sf9 membrane polyspecificity reagent, FACS + sequencing; frameworks hold sequencing errors
# Summary of the method: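 After 36–48 hours of galactose induction, yeast (Saccharomyces cerevisiae BJ5465) displaying a synthetic nanobody library were stained at 4 °C for 1 hour with 10% biotinylated, detergent-solubilized Sf9 membrane reagent. Streptavidin microbeads enriched the stained cells before FACS sorting into low and high (top ~1%) gates on anti-HA and streptavidin fluorescence. Each clone's polyreactivity label reflects its gate of origin.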
row,Sequence,polyreactivity (PSR sort gate)
1,QVQLVESGGGLVQAGGSLRLSCAASGSIFAGNAMGWYRQAPAKERELVAAISRRGGSTYYADSVKGRFTISRDNAKNTVYLQMNSLKPEDTAVSYCNALLRYAYHAAYGYWGQGTQVTVSS,high polyreactivity
2,QVQLVESGGGLVQAGGSLRLSCAASGSIFAGNAMGWYRQAPGKERELVAAISRRGGSTYYADSVKGRFTISRDNAKNTVYLQMNSLKPEDTAVYYCAAANWQRYYYWGQGTQVTVSS,high polyreactivity
3,QVQLVESGGGLVQAGGSLRLSCAASGSIFAGNAMGWYRQAPGKERELVAAISRRGGSTYYADSVKGRFTISRDNAKNTVYLQMNSLKPEDTAVYYCNALLRYAYHAAYGYWGQGTQVTVSS,high polyreactivity
4,QVQLVESGGGLVQAGGSLRLSCAASGSIFAGNTMGWYRQAPGKEREFVASIRSSSGSTYYADSVKGRFTISRDNAKNTVYLQMNSLKPEDTAVYYCAARVYHYREFWVNYWGHGTQVTVSS,high polyreactivity
5,QVQLVESGGGLVQAGGSLRLSCAASGSIFAGNVMGWYRQAPGKESELVAAISRRGGRTYYADSVKGRFTISRDNAKNTVYLQMNSLKPEDTAVYYCAARRDPVLGKSDYWGQGTQVTVSS,high polyreactivity
6,QVQLVESGGGLVQAGGSLRLSCAASGSIFAHYAMGGYRQAPGKERELVAAITRGGGTYYADSVKGRFTLSRDNAKNTVYLQMNSVKPEDTAVYYCARIYYVSIYRYDYWGQGTQVTVSS,high polyreactivity
7,QVQLVESGGGLVQAGGSLRLSCAASGSIFAINAMGWYRQAPGKERELVAAIRRRDGNTYYADSVKGRFTISRDNAKNSVYLQMNSLKPEDTAVYYCNTYSRRTSVIAYRYNYWGQGTQVTVSS,high polyreactivity
8,QVQLVESGGGLVQAGGSLRLSCAASGSIFAKNAMGWYRQAPGKERELVAAISRGGNSYYADSVKGRFTISRDNAKNPVYFPMNSLTPEDTAVYYCAADYYWYVWEYPTYWYEYWGQGTQVTVSS,high polyreactivity
9,QVQLVESGGGLVQAGGSLRLSCAASGSIFAKYAMGLYRQAPGKERELVAGITRGGSTYYADSVKGRFTISRDNAKNTVYLQMNSLKQEDTAVYYCAAKRHTSLYVYYYWGLGTQVTVSS,high polyreactivity
10,QVQLVESGGGLVQAGGSLRLSCAASGSIFAKYAMGWYRQAPGKERELVAAITGSGGSTYYADSVKGRFTISRDNAKNTVYLQMNSVKPEDTAVYYCAKRRPRYTYNYWGQGTQVTVSS,high polyreactivity
11,QVQLVESGGGLVQAGGSLRLSCAASGSIFALYAIGWYRQAPGKEREFVAAISYNGGSTYYADSVKGRFTISRDNAKNTVYLQMNSLKPEDTAVYYCNDVYYDSGVVGYYYWGQGTQVTVSS,high polyreactivity
12,QVQLVESGGGLVQAGGSLRLSCAASGSIFALYAMGWYRQAPGKERELVAAISYRGGRTYYADSVKGRFTISRDNAKNTVYLQMNSLKPEDTAVYYCKAAYGTSYLYNSEFYAAFTYDYWGQGTQVTVSS,low polyreactivity
13,QVQLVESGGGLVQAGGSLRLSCAASGSIFAPNAMGWYRQAPGKERELVAAITLSGGSRYYADSVKGRFTISREIAMNNVYLQMNSLKPEDTAVYYCNADLLPADAPLWVTGGDYWGQGTQVTVSS,low polyreactivity
14,QVQLVESGGGLVQAGGSLRLSCAASGSIFAPYTMGWYRQAPGKERELVAAISSSGTSTYYADSVKGRFTISRDNAKNTVYLQMNSLKPEDTAVYYCAADWYYHYGYWGQGTQVTVSS,high polyreactivity
15,QVQLVESGGGLVQAGGSLRLSCAASGSIFARYAMGWYRQAPGKERELVAAINSTVSTNYADSVKGRFTISRDNAKNTVYLQMNSLKPEDTAVYYCAVDIVRGGRDSWGQGTLVTVSS,low polyreactivity
16,QVQLVESGGGLVQAGGSLRLSCAASGSIFARYAMGWYRQAPGKERELVAAITGRGGSTYYADSVKGRFTISRDNAKNTVYLHMNSLKPEDTAVYYCAPKDVRRTRGGSGDYWGQGTQVTVSS,high polyreactivity
